Like-named read-outs stand apart in the source and are kept apart here.
Tests used:
MCA-SpyTag peptide [1] = target: MCA-SpyTag peptide
[2] = target: SARS-CoV-2 S1 (Sino Biological 40591-V08B1); Spike Protein S1 subunit residues 1 - 685(R) His tagged (SARS-CoV-2) (UniProt P0DTC2)
[3] = target: SARS-CoV-2 S1 (Sino Biological 40591-V08B1); Spike Protein S1 subunit residues 1 - 685(R) His tagged (SARS-CoV-2) (UniProt P0DTC2); remark: listed apart in the source
MCA-SpyTag peptide [4] = assay: QCM-D, SpyTag peptide on HDT-coated gold, without BSA (data not shown)
[5] = target: SARS-CoV-2 S1 (Sino Biological 40591-V08B1); Spike Protein S1 subunit residues 1 - 685(R) His tagged (SARS-CoV-2) (UniProt P0DTC2); assay: method not stated at this place (SPR of viral targets is described in paragraph 219)
[6] = target: SARS-CoV-2 S1 (Sino Biological 40591-V08B1); Spike Protein S1 subunit residues 1 - 685(R) His tagged (SARS-CoV-2) (UniProt P0DTC2); remark: listed apart in the source
[7] = target: SARS-CoV-2 S1 (Sino Biological 40591-V08B1); Spike Protein S1 subunit residues 1 - 685(R) His tagged (SARS-CoV-2) (UniProt P0DTC2); remark: listed apart in the source
[8] = target: SARS-CoV-2 S1 (Sino Biological 40591-V08B1); Spike Protein S1 subunit residues 1 - 685(R) His tagged (SARS-CoV-2) (UniProt P0DTC2); assay: OECT sensor, PEDOT:PSS channel, nanobody on gate, target in buffer
[9] = target: SARS-CoV-1 RBD (Sino Biological 40150-V08B2); Spike Receptor Binding Domain residues R306 - F527 His tagged (SARS-CoV-1) (UniProt P59594)
[10] = target: SARS-CoV-1 RBD (Sino Biological 40150-V08B2); Spike Receptor Binding Domain residues R306 - F527 His tagged (SARS-CoV-1) (UniProt P59594); assay: OECT sensor, PEDOT:PSS channel, nanobody on gate, target in buffer

Substance	mass density bound (QCM-D) (MCA-SpyTag peptide [1]) [ng cm-2]	normalized response (NR) [2] [%]	LOD [3] [pM]	mass density bound (QCM-D) (MCA-SpyTag peptide [4]) [ng cm-2]	molecules bound per cm2 (QCM-D) (nanobodies per cm^2) (MCA-SpyTag peptide [4])	Kd [5] [nM]	LOD [6] [pM]	LOD [7] [pM]	LOD [8] [pM]	LOD [9] [pM]	LOD [10] [pM]
VHH72-8 aa-spyCatcher-3C cleavage site-His8	430	30	1.8e-08	407	8.4e+12	23	0.019	1.2e-09	0.00028	–	–
VHH72-8 aa-spyCatcher-3C cleavage site-His8 (VHH; other documents disagree on this pair)	–	–	–	–	–	–	–	–	–	1.6e-05	0.0015

— US20240280570A1
